The target of this assay is T1, Ab3 WT recombinant Fc fragment (UniProt P01857-1 104-330 = IgG part, limits assumed).
T1 construct: domain: Fc fragment; Ab3 is an Fc fragment
The assay is described as follows: Biacore SPR, pH 6.0.

Protocol: With the biotin CAPture kit, the CAPture reagent was captured on the CAP chip surface to a binding RU of >2,000 RU, followed by 0.1 μg mL⁻¹ FcRn in the appropriate channels for 24 s at 30 uL min⁻¹ to a final binding RU of ˜2 RU. The running buffer for the FcRn binding kinetics experiments was PBS with 0.05% Surfactant P-20 (PBS-P+, GE Healthcare) at pH 6.0 or 7.4. A concentration series of a 4-fold serial dilution from 1000 nM antibody was performed in quadruplicate for each variant, including a 0 nM control. Kinetic measurements were obtained for association and dissociation times of 180 and 300 sec, respectively at a flow rate of 10 μL min⁻¹. The C1 and CAP sensor chips were regenerated with 10 mM sodium tetraborate, 1 M NaCl pH 8.5 (GE Healthcare) for 30 sec at 50 μL min⁻¹ or 6 M guanidine hydrochloride, 250 mM sodium hydroxide (GE Healthcare) for 120 s at 50 uL min¹, respectively, followed by an additional 60-90 sec stabilization step in PBS-P+pH 6.0. […]
Kinetic parameters for the concentration series at pH 6.0 were fit to a bivalent model using the Biacore T200 Evaluation Software due to avidity effects. […] The apparent binding affinity was calculated from the first on and off-rates from the bivalent model. The residual binding at pH 7.4 was measured using 1000 nM of each antibody in triplicate at the same time for response comparison.

B1: mouse FcRn (receptor)
chain: SETRPPLMYHLTAVSNPSTGLPSFWATGWLGPQQYLTYNSLRQEADPCGAWMWENQVSWYWEKETTDLKSKEQLFLEALKTLEKILNGTYTLQGLLGCELASDNSSVPTAVFALNGEEFMKFNPRIGNWTGEWPETEIVANLWMKQPDAARKESEFLLNSCPERLLGHLERGRRNLEWKEPPSMRLKARPGNSGSSVLTCAAFSFYPPELKFRFLRNGLASGSGNCSTGPNGDGSFHAWSLLEVKRGDEHHYQCQVEHEGLAQPLTVDLDSSARSS
b2m: IQKTPQIQVYSRHPPENGKPNILNCYVTQFHPPHIEIQMLKNGKKIPKVEMSDMSFSKDWSFYILAHTEFTPTETDTYACRVKHASMAEPKTVYWDRDM
modifications: biotinylated
notes: only 'biotinylated ... mouse FcRn' is told; also called mFcRn
Consider B1, for which the Kd came to 61 nM.

As usually defined, the Kd is a measure of binding affinity in units of concentration.

For the origin of these results see US20190263934A1 (published 2019).
